Experimental data taken from US20240100174A1, “PROTEIN-PEG INTERACTIONS THAT REDIRECT THE THERMAL UNFOLDING PATHWAY OF PEGYLATED HUMAN GALECTIN-3C” (UNIVERSITY OF FLORIDA RESEARCH FOUNDATION, INCORPORATED, priority 2022, published 2024).
Where “and” joins values, the source holds several entries; their conditions need not be identical. Equal values may be shown once.

Assays:
[1] = Rotational correlation time from 15N T1/T2 NMR relaxation; format: physicochemical; conditions: 30° C.; error is 95% confidence interval
Protocol: NMR data were recorded for temperatures between 30° C. and 55° C., as noted in the main text, with a Broker Avance™ III spectrometer operating at 800 MHz, running Topspin™ version 3.6.3 and equipped with a 5 mm TXI cryoprobe. The temperature was calibrated using a standard sample of 4% methanol in d4-MeOH. 2D [^15N, ^1H]-HSQC spectra were recorded using a gradient sensitivity-enhanced pulse sequence (hsqcetf3gpsi) with 2048 points in the direct dimension, between 180 to 260 points in the indirect dimension and between 32 to 736 scans per experiment, depending on the final sample concentration to achieve similar signal-to-noise ratios for all data. The ^15N T1 and T2 relaxation measurements were acquired with 1D ^15N-edited HSQC-based experiments (hsqct1etf3gpsi3d and hsqct2etf3gpsi3d) with 2048 points and 512 scans per experiment. For T1 measurements, experiments were recorded with relaxation delays of 0.02, 0.05, 0.1, 0.2, 0.3, 0.4, 0.6, 0.8,1, 1.2 or 1.5 s. […]
The rotational correlation times τc of Gal3C[T243C] and Gal3C[T243C]-PEG was then determined from T1 and T2 using the following spectral density function (j(ω)) equations […]
To investigate whether PEG and Gal3C[T243C] behaved more as two independent domains within the conjugated protein or if they interacted more closely, the rotational correlation times (τc) for Gal3C[T243C] and Gal3C[T243C]-PEG at 30° C. were determined. […]

[2] = Variable temperature circular dichroism (CD) thermal unfolding; format: physicochemical; conditions: for fitted melting temperature (Tm): CD at 220 nm
Protocol: CD spectroscopic data were recorded with an Applied Photophysics™ Chirascan spectrophotometer equipped with a Quantum Northwestern Peltier temperature control device and operating with Chirascan v4.7.0 and Pro-Data™ Viewer software. Samples were prepared in PBS at final concentrations of 10 μM. All samples were contained in 2 mm tapered quartz cuvettes, and a temperature probe was inserted through the cuvette cap to monitor the sample temperature in real time. The following parameters were used for constant temperature experiments: CD signal measured in millidegrees, bandwidth of 1.0 nm, wavelength scan from 200-280 nm, step size of 2.0 nm. Spectra were background subtracted against the sample buffer. For thermal unfolding experiments, a linear thermal ramp was applied from 30° C. to 90° C. at 1° C. per minute. All spectra were measured in triplicate, and data were normalized to account for slight differences in protein concentration.
To calculate melting temperatures of unconjugated Gal3C, Gal3C[T243C], and Gal3C[T243C] variants containing lysine replacements, the normalized data were fit to a Boltzmann sigmoidal function in Origin v8.5. For the data fitting, no parameters were fixed, and the ‘x’ parameter defined as the center of the data was interpreted as the melting temperature (Tm). Variable temperature CD data of PEGylated Gal3C[T243C] and Gal3C[T243C] variants were fit with a sum of two Boltzmann sigmoidal functions, as shown below:
where ‘A1’, ‘A2’, and ‘A3’ represent three plateaus of the CD signal, ‘dx1’ and ‘dx2’ are the change in x between the plateaus for each melting transition, and ‘x1’ and ‘x2’ are the two Tm values extracted by the fit for the first and second unfolding transitions, respectively. Because the third plateau, A3, occurred at temperatures higher than the experimentally accessible range, this value was estimated. A single wavelength for plotting on the y-axis was selected by calculating the wavelength of greatest CD signal change for each PEGylated construct.
To record a CD spectrum of Gal3C[T243C] with free PEG, a stock solution of methoxy-PEG (mPEG) in 1×PBS was added immediately before the experiment to a solution containing protein (20 μM, 1 ×PBS) to a final concentration of 22 μM mPEG. All thermal melt parameters were the same as listed in the above described experiments.
CD spectroscopic data were recorded with an Applied Photophysics Chirascan spectrophotometer equipped with a Quantum Northwestern Peltier temperature control device and operating with Chirascan v4.7.0 and Pro-Data Viewer software, following procedures used in our previous study.^4 Spectra were background subtracted against the sample buffer. For thermal unfolding experiments, a linear thermal ramp was applied from 30° C. to 90° C. at 1° C. per minute with samples concentrated to 10 μM in PBS. All spectra were measured in triplicate, and data were normalized to account for slight differences in protein concentration.
Full wavelength (200-280 nm) CD spectra for each construct (FIG. 43) were used to calculate a wavelength of greatest change (222 or 224 nm) to create single wavelength CD vs. temperature plots (FIG. 30H-J and FIG. 31F-G). The single wavelength CD signal vs. temperature plot of Gal3C[T243C] used data acquired at 220 nm, which was the wavelength of greatest change for the unmodified protein. To calculate melting temperatures, the normalized data were fit to a Boltzmann sigmoidal function in Origin v8.5. For the data fitting, no parameters were fixed, and the ‘x’ parameter defined as the center of the data was interpreted as the melting temperature (Tm).

B1: Gal3C[T243C]: Gal3C variant with a single extrinsic cysteine at position 243; SEQ ID NO: 11 (protein)
chain: MAGPLIVPYNLPLPGGVVPRMLITILGTVKPNANRIALDFQRGNDVAFHFNPRFNENNRRVIVCNTKLDNNWGREERQSVFPFESGKPFKIQVLVEPDHFKVAVNDAHLLQYNHRVKKLNEISKLGISGDIDLTSASYCMILEHHHHHH
- rotational correlation time (τc) [1]: 10.7 (±0.7) ns
- fitted melting temperature (Tm) ([2]; 20 μM protein in the absence of free PEG-OH): 57.5 °C
- fitted melting temperature (Tm) ([2]; 20 μM protein in the presence of 22 μM free PEG-OH): 57.7 °C
- Tm1 ± StDev ([2]; normalized CD at 220 nm vs. temperature, 3 replicates averaged, ramp 30-90° C. at 1° C. per minute): 58.1 °C and 58.1 ± 0.5 °C
- thermal unfolding behaviour / formation of unfolding intermediate ([2]; result in words, for polymer conjugates the selected SEC fractions): single cooperative unfolding transition
- Tm / Tm1 ([2]; values of Summary of Results, Tm for unconjugated protein, Tm1 for PEG conjugate): 58.0 °C
